Measurements reported in US20260116966A1 (KEYMED BIOSCIENCES CHENGDU, published 2026).
Positions count from the first letter of the chain named.

T1: Cynomolgus GPRC5D (Cynomolgus, UniProt Q9NZD1 1-343 (human entry))
T1 construct: Full length, on stably transfected cells (HEK293-cyGPRC5D, CHO-cyGPRC5D); also called cyGPRC5D
T1 chain: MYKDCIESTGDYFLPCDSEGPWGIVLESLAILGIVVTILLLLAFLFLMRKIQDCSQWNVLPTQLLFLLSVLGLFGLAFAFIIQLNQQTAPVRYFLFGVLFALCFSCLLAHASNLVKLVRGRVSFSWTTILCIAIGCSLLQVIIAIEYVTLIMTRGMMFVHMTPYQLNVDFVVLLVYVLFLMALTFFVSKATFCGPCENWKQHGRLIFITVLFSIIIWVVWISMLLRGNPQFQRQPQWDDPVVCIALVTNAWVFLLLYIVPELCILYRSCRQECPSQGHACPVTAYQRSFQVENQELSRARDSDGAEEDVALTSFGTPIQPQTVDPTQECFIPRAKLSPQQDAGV

B1: 2F1 × CD3 GPRC5D×CD3 κλ bispecific antibody (bispecific antibody, human IgG4 S228P, kappa, lambda)
heavy 1: QVQLVQSGAEVKKPGSSVKVSCKASGYSFTGYTMNWVREAPGQGLEWMGLINPYNGGTRYNQKFQGRVTLTVDKSSSTAYMELSSLRSEDTAVYYCARWALRYGMDYWGQGTLVTVSSASTKGPSVFPLAPCSRSTSESTAALGCLVKDYFPEPVTVSWNSGALTSGVHTFPAVLQSSGLYSLSSVVTVPSSSLGTKTYTCNVDHKPSNTKVDKRVESKYGPPCPPCPAPEFEGGPSVFLFPPKPKDTLMISRTPEVTCVVVDVSQEDPEVQFNWYVDGVEVHNAKTKPREEQFNSTYRVVSVLTVLHQDWLNGKEYKCKVSNKGLASSIEKTISKAKGQPREPQVCTLPPSQEEMTKNQVSLSCAVKGFYPSDIAVEWESNGQPENNYKTTPPVLDSDGSFFLVSKLTVDKSRWQEGNVFSCSVMHEALHNHYTQKSLSLSLGK
light 1: DIQMTQSPSSLSASVGDRVTITCRASQNVGTNVAWYQKKPGKAPKALIYSASYRNSGVPSRFSGSGSGTDFTLTISSLQPEDFATYFCQQYNSYLLTFGGGTKVEIKRTVAAPSVFIFPPSDEQLKSGTASVVCLLNNFYPREAKVQWKVDNALQSGNSQESVTEQDSKDSTYSLSSTLTLSKADYEKHKVYACEVTHQGLSSPVTKSFNRGEC
heavy 2: EVQLVESGGGLVQPGGSLRLSCAASGFTFNTYAMNWVRKAPGKGLEWVGRIRSKYNNYATYYADSVKDRFTISRDDSKNSLYLQMNSLKTEDTAVYYCVRHGNFGNSYVSWFAYWGQGTLVTVSSASTKGPSVFPLAPCSRSTSESTAALGCLVKDYFPEPVTVSWNSGALTSGVHTFPAVLQSSGLYSLSSVVTVPSSSLGTKTYTCNVDHKPSNTKVDKRVESKYGPPCPPCPAPEFEGGPSVFLFPPKPKDTLMISRTPEVTCVVVDVSQEDPEVQFNWYVDGVEVHNAKTKPREEQFNSTYRVVSVLTVLHQDWLNGKEYKCKVSNKGLASSIEKTISKAKGQPREPQVYTLPPCQEEMTKNQVSLWCLVKGFYPSDIAVEWESNGQPENNYKTTPPVLDSDGSFFLYSKLTVDKSRWQEGNVFSCSVMHEALHNHYTQKSLSLSLGK
light 2: QAVVTQEPSLTVSPGGTVTLTCRSSTGAVTTSNYANWVQEKPGQAPRGLIGGTNKRAPWTPARFSGSLLGGKAALTITGAQAEDEAEYYCVLWYSNLWVFGGGTKLTVLGQPKAAPSVTLFPPSSEELQANKATLVCLISDFYPGAVTVAWKADSSPVKAGVETTTPSKQSNNKYAASSYLSLTPEQWKSHRSYSCQVTHEGSTVEKTVAPTECS
notes: Human IgG4 knob-into-hole, Ser228Pro, Leu235Glu, Pro329Ala; also called parent 2F1×CD3 bispecific antibody
B2: 4B1 × CD3 GPRC5D×CD3 κλ bispecific antibody (bispecific antibody, human IgG4, V domains shown)
VH 1: QAQLVQSGAEVKKPGSSVKVSCKASGYTFTSYNMHWVREAPGQGLEWMGYIYPGNGGTNYNQKFQGRVTLTADTSSSTAYMELSSLRSEDTAVYFCARGYGYRYWYFDVWGQGTLVTVSS
VL 1: EIVLTQSPATLSLSPGERATLSCRASSSVSYMHWYQKKPGQAPRRLIYDTSKLASGIPARFSGSGSGTDYTLTISSLEPEDFAVYYCQQWSNYPPTFGGGTKVEIK
VH 2: EVQLVESGGGLVQPGGSLRLSCAASGFTFNTYAMNWVRKAPGKGLEWVGRIRSKYNNYATYYADSVKDRFTISRDDSKNSLYLQMNSLKTEDTAVYYCVRHGNFGNSYVSWFAYWGQGTLVTVSS
VL 2: QAVVTQEPSLTVSPGGTVTLTCRSSTGAVTTSNYANWVQEKPGQAPRGLIGGTNKRAPWTPARFSGSLLGGKAALTITGAQAEDEAEYYCVLWYSNLWVFGGGTKLTVL
notes: Human IgG4 knob-into-hole Fc with Ser228Pro, Leu235Glu, Pro329Ala
B3: 15D1 × CD3 GPRC5D×CD3 κλ bispecific antibody (bispecific antibody, human IgG4, V domains shown)
VH 1: QVQLVQSGAEVKKPGSSVKVSCKASGYTFTNYVMHWVKEKPGQGLEWMGYINPYNDGTKYNEKFQGRVTLTSDKSSNTAYMELSSLRSEDTAVYYCARGGVRRYFDYWGQGTLVTVSS
VL 1: DIQMTQSPSSLSASVGDRVTITCRASQDIGSNLNWLQKEPGKAPKRLIYATSSLDSGVPSRFSGSRSGSDYTLTISSLQPEDFATYYCLQYASFPYTFGQGTKLEIK
VH 2: B2 VH 2
VL 2: B2 VL 2
notes: as for B2
B4: 8D1 × CD3 GPRC5D×CD3 κλ bispecific antibody (bispecific antibody, human IgG4, V domains shown)
VH 1: QVQLVQSGAEVKKPGSSVKVSCKASGYTFTSYYMYWVREAPGQGLEWMGGINPSNGGTKYNEKFQGRVTLTVDKSSSTAYMELSSLRSEDTAVYYCTRGSLRSYYYAMDYWGQGTLVTVSS
VL 1: DIQMTQSPSSLSASVGDRVTITCQASQDISNYLNWYQKKPGKAPKLLIYYTSRLHSGVPSRFSGSGSGTDYTFTISSLQPEDIATYFCQQGYSLPYTFGQGTKLEIK
VH 2: B2 VH 2
VL 2: B2 VL 2
notes: as for B2
B5: 4D3 × CD3 GPRC5D×CD3 κλ bispecific antibody (bispecific antibody, human IgG4, V domains shown)
VH 1: QVQLVQSGAEVKKPGSSVKVSCKASGYTFTNFPIEWMREAPGQGLEWMGNFHPYNDVTKYNEKFQGRVTLTVDKSSSTVYMELSSLRSEDTAVYYCALITRGYWGQGTLVTVSS
VL 1: DIVMTQSPDSLAVSLGERATINCKSSQSLLYSRNQKNSLAWYQKKPGQPPKLLIYWASTRESGVPDRFSGSGSGTDFTLTISSLQAEDVAVYYCQQYYSYPLTFGQGTKLEIK
VH 2: B2 VH 2
VL 2: B2 VL 2
notes: as for B2
B6: anti-GPRC5D chimeric antibody 6H1 (antibody, V domains shown)
VH: QAYLQQSGAELVRSGASVKMSCKASGYTFTSYNMHWVKQTPGQGLEWIGYIYPGNGGTNYNQKFKGKATLTADTSSSTAYMQISSLTSEDSAVYFCARGYGYRYWYFDVWGTGTTVTVSS
VL: QIVLTQSPAIMSASPGEKVTMTCSASSSVSYMHWYQQKSGTSPKRWIYDTSKLASGVPARFSGSGSGTSYSLTISSMEAEDAATYYCQQWNSKPPTFGSGTKLEIK
B7: anti-GPRC5D chimeric antibody 2E1 (antibody, V domains shown)
VH: QVQLQQPGAELVKPGASVKLSCKASGYTFTRYWMHWVKQRPGQGLDWIGEFNPSNGRINYNEKFKNKATLTIDKSSSTAYMQLSSLTSEDSAVYYCTRGFAYWGQGTLVTVSA
VL: B6 VL with K18R, S28T, M32I, N91T, S92T, K93N, P95W, S99G
B8: anti-GPRC5D chimeric antibody 4B1 (antibody, V domains shown)
VH: B6 VH with K63N, T112A
VL: B6 VL with A59V, N91S, S92N, K93Y
B9: anti-GPRC5D chimeric antibody 2F1 (antibody, V domains shown)
VH: EVLLQQSGPELVKPGTSMKISCKASGYSFTGYTMNWVKQRHGKNLEWIGLINPYNGGTRYNQKFKGRATLTVDKSSSTAYMELLSLTSEDSAVYYCARWALRYGMDYWGQGTSVTVSS
VL: DIVMTQSQKFMSTSVGDRVSVTCKASQNVGTNVAWYQQKPGHSPKALIYSASYRNSGVPDRFTGSGSGTDFTLTISNVQSEDLAEYFCQQYNSYLLTFGGGTKLELK
B10: anti-GPRC5D chimeric antibody 15D1 (antibody, V domains shown)
VH: EVQLQQSGPELGKPGASVKMSCKASGYTFTNYVMHWVKQKPGQGLEWIGYINPYNDGTKYNEKFKGKATLTSDKSSNTAYMELSSLTSEDSAVYYCARGGVRRYFDYWGQGTTLTVSS
VL: DIQMTQSPSSLSASLGERVSLTCRASQDIGSNLNWLQQEPDGTIKRLIYATSSLDSGVPKRFSGSRSGSDYSLTISSLESEDFVDYYCLQYASFPYTFGGGTKLEIK

These binders were tested against T2, human GPRC5D (human, UniProt Q9NZD1 1-345) (assay: cell-based or functional assay).
T2 sequence (Q9NZD1 whole entry): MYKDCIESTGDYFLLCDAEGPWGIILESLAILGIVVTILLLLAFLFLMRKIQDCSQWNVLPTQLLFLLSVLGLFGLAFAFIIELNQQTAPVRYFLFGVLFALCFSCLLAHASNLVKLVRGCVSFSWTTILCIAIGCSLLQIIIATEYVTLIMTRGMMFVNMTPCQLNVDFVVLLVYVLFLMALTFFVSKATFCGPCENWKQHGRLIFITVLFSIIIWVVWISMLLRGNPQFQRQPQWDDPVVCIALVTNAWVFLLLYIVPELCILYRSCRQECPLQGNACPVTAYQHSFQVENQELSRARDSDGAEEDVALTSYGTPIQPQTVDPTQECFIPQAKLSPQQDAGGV

TDCC EC50 (pM), MM.1R [pM] | Binder
0.65 | B1
6.95 | B2
96.5 | B3
32.9 | B4
6.18 | B5

Each binder was assayed against T2, human GPRC5D (assay: flow cytometry, MM.1R cells).
Procedure: The cell suspension was adjusted to a concentration of 5×10⁵ cells/mL, and 100 μL per well was added to a 96-well U-shaped plate, centrifuged at 300 g for 5 min. The supernatant was discarded. 100 μL per well of serially diluted antibody was added (initial concentration: 200 nM, 3-fold dilution, 10 gradients), and incubated at 4° C. for 60 min. The primary antibody was washed away, and 50 μL/well Alexa Fluro647 labeled goat anti-human IgG FC (1:300 dilution) was added, and incubated for 20 min. After washing once, 50 μL/well of PI was added, incubated for 5 min, and detected by flow cytometry.

EC50 [nM] | Maximum fluorescence intensity (MFI, 200 nM) [MFI] | Binder
1.51 | 94600 | B1
3.35 | 70900 | B2
– | 12800 | B3
3.34 | 89000 | B4
10.7 | 110000 | B5

Target: T1, Cynomolgus GPRC5D
Assay: flow cytometry on CHO-cyGPRC5D cells
Procedure: (§1) The binding of the antibodies to human and Cynomolgus GPRC5D stably transfected cells was detected by flow cytometry. […] Then, 100 μl/well of the cell suspension was added to a 96-well U-shaped plate, and centrifuged at 300 g for 5 min. The supernatant was discarded. 100 μL per well of serially diluted antibody was added (initial concentration: 200 nM, 3-fold dilution, 12 gradients), and incubated at 4° C. for 45 min. The secondary antibody 50 μL/well of Alexa Fluro647 labeled goat anti-human IgG Fc (1:300 dilution) was added, incubated on ice for 45 min, and detected by flow cytometry.

binding result | Binder
binds | B6
binds | B7
binds | B8
binds | B9
binds | B10

What follows are binders tested against T2, human GPRC5D (assay: flow cytometry on CHO-hGPRC5D cells).
Procedure: as §1

binding result | EC50 (read off the curve) [nM] | Binder
binds | – | B6
binds | – | B7
– | ~0.6 | B8
binds | – | B9
– | ~0.1 | B10
